From patent US20230210946A1, “TREATMENT OF CANCER” (Immutep S.A.S., priority 2020, published 2023)

Experiments:
Format in all cases: in vivo, human
[1] = system: HER2 negative hormone receptor-positive metastatic breast cancer; experiment: AIPAC Phase IIb study: progression-free survival (PFS); details: investigator read; for PFS absolute gain / PFS Hazard Ratio: vs paclitaxel + placebo
Description: (§1) A Phase IIb clinical study was carried out to investigate the safety and efficacy of the active immunotherapy IMP321 in combination (adjunctive) with paclitaxel chemotherapy in patients with HER2 negative hormone receptor-positive metastatic breast cancer.
(§2) A multicentre, placebo-controlled, double-blind, 1:1 randomised Phase IIb study in female HER2 negative hormone receptor-positive metastatic breast cancer patients was conducted. The study comprised two stages: • stage 1 which was an open-label, safety run-in stage consisting of cohorts 1 and 2 to confirm the recommended Phase II dose (RPTD) of IMP321 in combination with paclitaxel; and • stage 2 which was a placebo-controlled, double-blind randomisation stage, paclitaxel+IMP321 at the RPTD compared to paclitaxel+placebo.
(§3) Paclitaxel+IMP321 at the RPTD of 30 mg (114 patients):
(§4) The chemo-immunotherapy phase consisted of 6 cycles of 4 weeks. Patients received weekly paclitaxel at Days 1, 8 and 15 with adjunctive treatment of study agent (IMP321) on Days 2 and 16 of each 4-week cycle. After completion of the 6-cycle chemo-immunotherapy phase, responding or stable patients received study agent (IMP321) every 4 weeks during the maintenance phase for an additional period of up to 12 injections.
(§5) Active Comparator: Paclitaxel+Placebo (112 patients):
as §4, with “(placebo)” for “(IMP321)”
Primary Outcome Measures: • 1. Stage 1 to determine the recommended phase two dose (RPTD) for the randomised phase • 2. Assessment of Progression-Free Survival (PFS)

[2] = Safety of s.c. IMP321 doses
[3] = system: HER2 negative hormone receptor-positive metastatic breast cancer; experiment: AIPAC Phase IIb study: overall survival (OS)
Description: as §1, §2, §3, §4, §5
as §4, with “(placebo)” for “(IMP321)”
(§6) Secondary Outcome Measures: • 1. […] Assessment of the overall survival (OS) • 3. […] Evaluation of the time to next treatment • 6. Evaluation of objective response rate (ORR) • 7. Evaluation of stable disease

[4] = AIPAC: quality of life (QoL); details: at week 25
Source text: as §6

[5] = Pharmacokinetics of s.c. IMP321 in metastatic renal cell cancer patients
[6] = system: HER2 negative hormone receptor-positive metastatic breast cancer; experiment: AIPAC Phase IIb study: best overall response acc. to RECIST 1.1 by BICR (ORR, DCR); details: entire patient population
Description: as §1, §2, §3, §4, §5
The chemo-immunotherapy phase consisted of 6 cycles of 4 weeks. […]

B1: IMP321: recombinant soluble human LAG-3Ig fusion protein, 160-kDa dimer: extracellular domain of hLAG-3 fused to the human IgG1 Fc (protein)
chain: LQPGAEVPVVWAQEGAPAQLPCSPTIPLQDLSLLRRAGVTWQHQPDSGPPAAAPGHPLAPGPHPAAPSSWGPRPRRYTVLSVGPGGLRSGRLPLQPRVQLDERGRQRGDFSLWLRPARRADAGEYRAAVHLRDRALSCRLRLRLGQASMTASPPGSLRASDWVILNCSFSRPDRPASVHWFRNRGQGRVPVRESPHHHLAESFLFLPQVSPMDSGPWGCILTYRDGFNVSIMYNLTVLGLEPPTPLTVYAGAGSRVGLPCRLPAGVGTRSFLTAKWTPPGGGPDLLVTGDNGDFTLRLEDVSQAQAGTYTCHIHLQEQQLNATVTLAIITVTPKSFGSPGSLGKLLCEVTPVSGQERFVWSSLDTPSQRSFSGPWLEAQEAQLLSQPWQCQLYQGERLLGAAVYFTELSSPG
modifications: left off: small tags and cut ends; a dimerising Fc or GST
notes: recombinant soluble human LAG-3Ig fusion protein, 160-kDa dimer: extracellular domain of hLAG-3 fused to the human IgG1 Fc
[1]; Luminal B type
  PFS median: 7.2 months
  PFS absolute gain: +1.7 months
[1]; age < 65 years
  Median PFS: 7.2 months
  PFS absolute gain: +1.7 months
[1]; low (<0.25 × 10^9/L) monocytes at baseline
  PFS median: 7.5 months
[1]; low monocytes at baseline
  PFS absolute gain: +2.3 months
[1]; with prior CDK4/6 therapy
  Median PFS: 5.6 months
  PFS Hazard Ratio: HR 1.02
  PFS absolute gain: −1.1 months
[1]; without prior taxane therapy
  Median PFS: 7.2 months
  PFS Hazard Ratio: HR 0.88
  PFS absolute gain: +1.7 months
[2]; doses of 6-30 mg per s.c. injection
  safety: safe
[2]; to date
  dose limiting toxicity: No dose limiting toxicity has been observed
[3]; Luminal B type, investigator read
  Median OS: 16.3 months
[3]; Luminal B type, investigator read, vs paclitaxel + placebo
  OS absolute gain: +3.8 months
[3]; age < 65 years, investigator read
  Median OS: 21.9 months
[3]; age < 65 years, investigator read, vs paclitaxel + placebo
  OS absolute gain: +7.1 months
[3]; entire patient population, investigator read, vs paclitaxel + placebo
  OS Hazard Ratio [95% CI]: 0.83
[3]; entire patient population, vs paclitaxel + placebo
  gain in median OS: 2.7 months
[3]; low (<0.25 × 10^9/L) monocytes at baseline, investigator read
  Median OS: 22.4 months
[3]; low monocytes at baseline, investigator read, vs paclitaxel + placebo
  OS absolute gain: +9.4 months
[3]; with prior CDK4/6 therapy, investigator read
  Median OS: 20.2 months
[3]; with prior CDK4/6 therapy, investigator read, vs paclitaxel + placebo
  OS Hazard Ratio: HR 0.84
[3]; without prior taxane therapy, investigator read
  Median OS: 21.4 months
[3]; without prior taxane therapy, investigator read, vs paclitaxel + placebo
  OS Hazard Ratio: HR 0.69
[4]
  deterioration in Quality of Life (QoL): not observed
[5]; doses of 6-30 mg per s.c. injection, metastatic renal cell cancer patients
  systemic exposure: acceptable systemic exposure
[5]; for at least 24 hours after s.c. injection, doses of more than 6 mg
  blood concentration of IMP321: > 1 ng/mL
[6]
  Progressive disease: fewer patients with immediate progression
